According to patent US20250352661A1 (MYTHIC THERAPEUTICS, published 2025):

T1: Human LRRC15 Protein, His Tag (Acro Biosystems) (human, UniProt Q8TF66 22-538, limits assumed)
T1 sequence (looked up): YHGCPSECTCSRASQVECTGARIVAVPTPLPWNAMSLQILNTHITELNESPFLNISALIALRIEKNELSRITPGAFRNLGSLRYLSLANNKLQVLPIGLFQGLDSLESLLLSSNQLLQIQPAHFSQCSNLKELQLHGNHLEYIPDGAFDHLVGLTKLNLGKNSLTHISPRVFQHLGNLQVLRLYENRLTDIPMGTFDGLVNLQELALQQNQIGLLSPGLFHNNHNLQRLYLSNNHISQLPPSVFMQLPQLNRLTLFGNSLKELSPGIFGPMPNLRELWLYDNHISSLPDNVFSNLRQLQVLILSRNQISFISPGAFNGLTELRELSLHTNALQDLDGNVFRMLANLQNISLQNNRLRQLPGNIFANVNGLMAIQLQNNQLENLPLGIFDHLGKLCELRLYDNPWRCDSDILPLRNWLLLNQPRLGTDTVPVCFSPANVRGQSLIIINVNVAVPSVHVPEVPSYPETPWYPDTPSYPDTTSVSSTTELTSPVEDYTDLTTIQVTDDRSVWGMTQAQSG


Molecular target: T1, Human LRRC15 Protein, His Tag (Acro …)
Assay: BLI; dissociation pH 7.4 black, pH 5.4 grey [1/2); D00006 FIG. 1E (1/2]
Description: For each individual plot, antigen binding proteins were captured on anti-human Fc biosensors and associated with LRRC15 at pH 7.4. Dissociation was at pH 7.4 (black) or pH 5.4 (grey). Major X-axis ticks=100 seconds, with left dashed vertical line=0 seconds. Major Y-axis ticks=0.5 nm and octet plots are shown MYT5712 and MYT6080-MYT6121.
Multiple LRRC15-binding monoclonal antibodies have been described in the literature and can be used as a template for engineering pH-dependent binding. We selected discovery RabMAb clone 15G7 (rabbit VH SEQ ID NO: 378, rabbit VL SEQ ID NO: 451; humanized VH SEQ ID NO: 382, humanized VL SEQ ID NO: 455) as a LRRC15-binding monoclonal antibody for pH-engineering via histidine scanning. […] To generate pH-dependent sequence variants, individual amino acid residues within the heavy chain CDRs were systematically substituted with a histidine (or alanine if H was already present in a given position; e.g., MYT6099), one at a time (rabbit, MYT6080-6121). Desirable mutations were transferred to a humanized framework (humanized, MYT 8387-8411). After allowing for four days of protein expression, cell culture supernatants were collected, quantified by SDS-PAGE analysis, and the pH dependence of the variant was evaluated using biolayer interferometry (BLI) on an Octet RED 96e instrument. Briefly, cell culture supernatants were diluted based on qualitative expression level of the variant determined by visual examination of SDS-PAGE gels, 5 μL of cell culture supernatant was diluted into 195 μL of 1×PBST, pH 7.4 for high expressors, 25 μL of cell culture supernatant was diluted into 175 μL of 1×PBST, pH 7.4 for medium expressors and 100 μL of cell culture supernatant was diluted into 100 μL of 1×PBST, pH 7.4 for low expressors for loading onto the sensor tips.

binding result	Binder
binds	MYT6087 (antibody, V domains shown, chimeric rabbit 15G7 variant (rabbit variable domains, human constant regions); also called 15G7 VH N33H) VH: QEQLEESGGDLVKPGASLTLTCTASGLDFRRTHYICWVRQAPGKGLEWIGCIYIADVVHYYASWAKGRFTFSKTSSTTVTLQMTSLTAADTATYFCARGADGGFVYGMDLWGPGTLVTVSS VL: DVVMTQTPASVSEPVGGTVTIKCQASQSIGNYLSWYQQKPGQRPKRLIYSASTLPSGVPSRFKGAGSGTEFTLTISDLESADAATYYCQNNYWLAGYGHPFGGGTEVVVK
binds	MYT6098 (antibody, V domains shown, chimeric rabbit 15G7 variant (rabbit variable domains, human constant regions); also called 15G7 VH V58H) VH: QEQLEESGGDLVKPGASLTLTCTASGLDFRRTNYICWVRQAPGKGLEWIGCIYIADVHHYYASWAKGRFTFSKTSSTTVTLQMTSLTAADTATYFCARGADGGFVYGMDLWGPGTLVTVSS VL: DVVMTQTPASVSEPVGGTVTIKCQASQSIGNYLSWYQQKPGQRPKRLIYSASTLPSGVPSRFKGAGSGTEFTLTISDLESADAATYYCQNNYWLAGYGHPFGGGTEVVVK
binds	MYT6099 (antibody, V domains shown, chimeric rabbit 15G7 variant (rabbit variable domains, human constant regions); also called 15G7 VH H59A) VH: QEQLEESGGDLVKPGASLTLTCTASGLDFRRTNYICWVRQAPGKGLEWIGCIYIADVVAYYASWAKGRFTFSKTSSTTVTLQMTSLTAADTATYFCARGADGGFVYGMDLWGPGTLVTVSS VL: DVVMTQTPASVSEPVGGTVTIKCQASQSIGNYLSWYQQKPGQRPKRLIYSASTLPSGVPSRFKGAGSGTEFTLTISDLESADAATYYCQNNYWLAGYGHPFGGGTEVVVK
binds	MYT6101 (antibody, V domains shown, chimeric rabbit 15G7 variant (rabbit variable domains, human constant regions); also called 15G7 VH Y61H) VH: QEQLEESGGDLVKPGASLTLTCTASGLDFRRTNYICWVRQAPGKGLEWIGCIYIADVVHYHASWAKGRFTFSKTSSTTVTLQMTSLTAADTATYFCARGADGGFVYGMDLWGPGTLVTVSS VL: DVVMTQTPASVSEPVGGTVTIKCQASQSIGNYLSWYQQKPGQRPKRLIYSASTLPSGVPSRFKGAGSGTEFTLTISDLESADAATYYCQNNYWLAGYGHPFGGGTEVVVK
binds	MYT6096 (antibody, V domains shown, chimeric rabbit 15G7 variant (rabbit variable domains, human constant regions); also called 15G7 VH D56H) VH: QEQLEESGGDLVKPGASLTLTCTASGLDFRRTNYICWVRQAPGKGLEWIGCIYIAHVVHYYASWAKGRFTFSKTSSTTVTLQMTSLTAADTATYFCARGADGGFVYGMDLWGPGTLVTVSS VL: DVVMTQTPASVSEPVGGTVTIKCQASQSIGNYLSWYQQKPGQRPKRLIYSASTLPSGVPSRFKGAGSGTEFTLTISDLESADAATYYCQNNYWLAGYGHPFGGGTEVVVK
binds	MYT6094 (antibody, V domains shown, chimeric rabbit 15G7 variant (rabbit variable domains, human constant regions); also called 15G7 VH I54H) VH: QEQLEESGGDLVKPGASLTLTCTASGLDFRRTNYICWVRQAPGKGLEWIGCIYHADVVHYYASWAKGRFTFSKTSSTTVTLQMTSLTAADTATYFCARGADGGFVYGMDLWGPGTLVTVSS VL: DVVMTQTPASVSEPVGGTVTIKCQASQSIGNYLSWYQQKPGQRPKRLIYSASTLPSGVPSRFKGAGSGTEFTLTISDLESADAATYYCQNNYWLAGYGHPFGGGTEVVVK
binds	MYT6100 (antibody, V domains shown, chimeric rabbit 15G7 variant (rabbit variable domains, human constant regions); also called 15G7 VH Y60H) VH: QEQLEESGGDLVKPGASLTLTCTASGLDFRRTNYICWVRQAPGKGLEWIGCIYIADVVHHYASWAKGRFTFSKTSSTTVTLQMTSLTAADTATYFCARGADGGFVYGMDLWGPGTLVTVSS VL: DVVMTQTPASVSEPVGGTVTIKCQASQSIGNYLSWYQQKPGQRPKRLIYSASTLPSGVPSRFKGAGSGTEFTLTISDLESADAATYYCQNNYWLAGYGHPFGGGTEVVVK
binds	MYT6103 (antibody, V domains shown, chimeric rabbit 15G7 variant (rabbit variable domains, human constant regions); also called 15G7 VH S63H) VH: QEQLEESGGDLVKPGASLTLTCTASGLDFRRTNYICWVRQAPGKGLEWIGCIYIADVVHYYAHWAKGRFTFSKTSSTTVTLQMTSLTAADTATYFCARGADGGFVYGMDLWGPGTLVTVSS VL: DVVMTQTPASVSEPVGGTVTIKCQASQSIGNYLSWYQQKPGQRPKRLIYSASTLPSGVPSRFKGAGSGTEFTLTISDLESADAATYYCQNNYWLAGYGHPFGGGTEVVVK
binds	MYT6089 (antibody, V domains shown, chimeric rabbit 15G7 variant (rabbit variable domains, human constant regions); also called 15G7 VH I35H) VH: QEQLEESGGDLVKPGASLTLTCTASGLDFRRTNYHCWVRQAPGKGLEWIGCIYIADVVHYYASWAKGRFTFSKTSSTTVTLQMTSLTAADTATYFCARGADGGFVYGMDLWGPGTLVTVSS VL: DVVMTQTPASVSEPVGGTVTIKCQASQSIGNYLSWYQQKPGQRPKRLIYSASTLPSGVPSRFKGAGSGTEFTLTISDLESADAATYYCQNNYWLAGYGHPFGGGTEVVVK
binds	MYT6107 (antibody, V domains shown, chimeric rabbit 15G7 variant (rabbit variable domains, human constant regions); also called 15G7 VH G67H) VH: QEQLEESGGDLVKPGASLTLTCTASGLDFRRTNYICWVRQAPGKGLEWIGCIYIADVVHYYASWAKHRFTFSKTSSTTVTLQMTSLTAADTATYFCARGADGGFVYGMDLWGPGTLVTVSS VL: DVVMTQTPASVSEPVGGTVTIKCQASQSIGNYLSWYQQKPGQRPKRLIYSASTLPSGVPSRFKGAGSGTEFTLTISDLESADAATYYCQNNYWLAGYGHPFGGGTEVVVK
binds	MYT6105 (antibody, V domains shown, chimeric rabbit 15G7 variant (rabbit variable domains, human constant regions); also called 15G7 VH A65H) VH: QEQLEESGGDLVKPGASLTLTCTASGLDFRRTNYICWVRQAPGKGLEWIGCIYIADVVHYYASWHKGRFTFSKTSSTTVTLQMTSLTAADTATYFCARGADGGFVYGMDLWGPGTLVTVSS VL: DVVMTQTPASVSEPVGGTVTIKCQASQSIGNYLSWYQQKPGQRPKRLIYSASTLPSGVPSRFKGAGSGTEFTLTISDLESADAATYYCQNNYWLAGYGHPFGGGTEVVVK
binds	MYT6095 (antibody, V domains shown, chimeric rabbit 15G7 variant (rabbit variable domains, human constant regions); also called 15G7 VH A55H) VH: QEQLEESGGDLVKPGASLTLTCTASGLDFRRTNYICWVRQAPGKGLEWIGCIYIHDVVHYYASWAKGRFTFSKTSSTTVTLQMTSLTAADTATYFCARGADGGFVYGMDLWGPGTLVTVSS VL: DVVMTQTPASVSEPVGGTVTIKCQASQSIGNYLSWYQQKPGQRPKRLIYSASTLPSGVPSRFKGAGSGTEFTLTISDLESADAATYYCQNNYWLAGYGHPFGGGTEVVVK
binds	MYT6097 (antibody, V domains shown, chimeric rabbit 15G7 variant (rabbit variable domains, human constant regions); also called 15G7 VH V57H) VH: QEQLEESGGDLVKPGASLTLTCTASGLDFRRTNYICWVRQAPGKGLEWIGCIYIADHVHYYASWAKGRFTFSKTSSTTVTLQMTSLTAADTATYFCARGADGGFVYGMDLWGPGTLVTVSS VL: DVVMTQTPASVSEPVGGTVTIKCQASQSIGNYLSWYQQKPGQRPKRLIYSASTLPSGVPSRFKGAGSGTEFTLTISDLESADAATYYCQNNYWLAGYGHPFGGGTEVVVK
binds	MYT6093 (antibody, V domains shown, chimeric rabbit 15G7 variant (rabbit variable domains, human constant regions); also called 15G7 VH Y53H) VH: QEQLEESGGDLVKPGASLTLTCTASGLDFRRTNYICWVRQAPGKGLEWIGCIHIADVVHYYASWAKGRFTFSKTSSTTVTLQMTSLTAADTATYFCARGADGGFVYGMDLWGPGTLVTVSS VL: DVVMTQTPASVSEPVGGTVTIKCQASQSIGNYLSWYQQKPGQRPKRLIYSASTLPSGVPSRFKGAGSGTEFTLTISDLESADAATYYCQNNYWLAGYGHPFGGGTEVVVK
binds	MYT6088 (antibody, V domains shown, chimeric rabbit 15G7 variant (rabbit variable domains, human constant regions); also called 15G7 VH Y34H) VH: QEQLEESGGDLVKPGASLTLTCTASGLDFRRTNHICWVRQAPGKGLEWIGCIYIADVVHYYASWAKGRFTFSKTSSTTVTLQMTSLTAADTATYFCARGADGGFVYGMDLWGPGTLVTVSS VL: DVVMTQTPASVSEPVGGTVTIKCQASQSIGNYLSWYQQKPGQRPKRLIYSASTLPSGVPSRFKGAGSGTEFTLTISDLESADAATYYCQNNYWLAGYGHPFGGGTEVVVK
binds	MYT6106 (antibody, V domains shown, chimeric rabbit 15G7 variant (rabbit variable domains, human constant regions); also called 15G7 VH K66H) VH: QEQLEESGGDLVKPGASLTLTCTASGLDFRRTNYICWVRQAPGKGLEWIGCIYIADVVHYYASWAHGRFTFSKTSSTTVTLQMTSLTAADTATYFCARGADGGFVYGMDLWGPGTLVTVSS VL: DVVMTQTPASVSEPVGGTVTIKCQASQSIGNYLSWYQQKPGQRPKRLIYSASTLPSGVPSRFKGAGSGTEFTLTISDLESADAATYYCQNNYWLAGYGHPFGGGTEVVVK
binds	MYT6092 (antibody, V domains shown, chimeric rabbit 15G7 variant (rabbit variable domains, human constant regions); also called 15G7 VH I52H) VH: QEQLEESGGDLVKPGASLTLTCTASGLDFRRTNYICWVRQAPGKGLEWIGCHYIADVVHYYASWAKGRFTFSKTSSTTVTLQMTSLTAADTATYFCARGADGGFVYGMDLWGPGTLVTVSS VL: DVVMTQTPASVSEPVGGTVTIKCQASQSIGNYLSWYQQKPGQRPKRLIYSASTLPSGVPSRFKGAGSGTEFTLTISDLESADAATYYCQNNYWLAGYGHPFGGGTEVVVK
